Assay results taken from US20250170267A1, “ANTIBODY-DRUG CONJUGATE PRECURSOR AND INTERMEDIATE FOR SYNTHESIS THEREOF” (UBE Corporation, priority 2022, published 2025).
Numbered stars: 1 amine (or outer) side, 2 acyl side, 3 side chain; on linkers, the order of the positions; unused ones are H or OH. Square brackets hold non-standard residues; d marks the D form. Peptide text beside a SMILES is read from it. * marks the point of attachment. βAla(2S-maleimido) = O=C1C=CC(=O)N1[C@@H](CN[*:1])C(=O)[*:2]; Dolaproine = CO[C@@H]([C@@H]1CCCN1)[C@@H](C)C(=O)O; Propanoyl(3-maleimido) = O=C1C=CC(=O)N1CCC(=O)*; Dil = CC[C@H](C)[C@H](NC)[C@@H](CC(=O)O)OC; X3 = C[C@@H](N*)[C@@H](OP(=O)(O)O)c1ccccc1; Propanoyl(3-PO3H2) = O=C(CCP(=O)(O)O)*; PABC = O=C(OCc1ccc(N[*:1])cc1)[*:2]; X1 = C[C@@H](N*)[C@@H](O)c1ccccc1; hSer(lactone) = O=C1OCC[C@@H]1N*; Cit = NC(=O)NCCC[C@H](N)C(=O)O; PEG4 = NCCOCCOCCOCCOCCC(=O)O; NMeV = CN[C@H](C(=O)O)C(C)C

Tests used:
[1] = Retention time in HPLC (index of hydrophilicity); type: physicochemical; conditions: BEH C18, 0.1% formic acid/acetonitrile gradient, 40° C.
Protocol: As an index of hydrophilicity of the Examples, the retention time (RT) in HPLC analysis was measured, and compared.
Device: LCMS2020 system Shimadzu Corporation
Column: Acquity UPLC (registered trademark) BEH C18 (2.1×50 mm, 1.7 μm)_Waters
Eluent: Solution A: 0.1% aqueous solution of formic acid, Solution B: 0.1% solution of formic acid in acetonitrile

human liver lysosome = assay: Metabolism test using human liver lysosomal fraction; type: in vitro ADME; conditions: 37° C., 24 hours, released drug, LC-MS/MS
Protocol: To a reaction composition solution (X10 Catabolic Buffer (manufactured by SEKISUI-Xenotech, LLC., K5200))(60 μL) in which human liver lysosome (manufactured by SEKISUI-Xenotech, LLC., Cat No. H610.L 2.5 mg/mL)(corresponding to 0.125 mg of protein) was suspended and distilled water (manufactured by FUJIFILM Wako Pure Chemical Corporation, for HPLC)(10 μL) was added 1.2 μM test compound (antibody-drug conjugate produced in ADC Production examples)(25 μL) dissolved in PBS to prepare a reaction solution. After the reaction solution was incubated at 37° C. for 24 hours, “an antitumor drug molecule or an analog thereof, or a derivative thereof” released from the antibody-drug conjugate into the reaction solution was quantified by LC-MS/MS (high performance liquid chromatography/mass spectrometer system) under the following conditions. LC-MS/MS analysis conditions
(§1) LC: LC20 or LC30 HPLC system manufactured by Shimadzu Corporation
(§2) Column: Phenomenex Kinetex C18 (50×2.1 mm, 2.6 μm)
(§3) Column temperature: 40° C.
(§4) Mobile phase A: 0.1% aqueous solution of formic acid, Mobile phase B: 0.1% solution of formic acid in a mixture of 50% acetonitrile/methanol
(§5) Mode: Positive or Negative
(§6) The release rate (%) of drug was calculated by the following equation.

human liver Cathepsin B = molecular target: T1, human liver Cathepsin B (Homo sapiens, UniProt P07858); assay: Metabolism test using human liver Cathepsin B; type: in vitro ADME; conditions: 37° C., 24 hours, released drug, LC-MS/MS
T1 construct: human liver Cathepsin B (manufactured by Sigma-Aldrich Co. LLC, Cat No. C8571 25 μg/vial); purchased Sigma-Aldrich Co. LLC C8571; host or cells: human liver
Protocol: To human liver Cathepsin B (manufactured by Sigma-Aldrich Co. LLC, Cat No. C8571 25 μg/vial)(corresponding to 400 Unit/mL)(5 μL), X10 Catabolic Buffer (manufactured by SEKISUI-Xenotech, LLC., K5200)(10 μL), 2.5 mM Bovine Serum Albumin (manufactured by FUJIFILM Wako Pure Chemical Corporation, Cat No. 012-15093)(5 μL), and distilled water (manufactured by FUJIFILM Wako Pure Chemical Corporation, for HPLC)(55 μL) was added 1.2 μM test compound (antibody-drug conjugate prepared in ADC Production examples)(25 μL) dissolved in PBS to prepare a reaction solution. After the reaction solution was incubated at 37° C. for 24 hours, “an antitumor drug molecule or an analog thereof, or a derivative thereof” released from the antibody-drug conjugate into the reaction solution was quantified by LC-MS/MS (high performance liquid chromatography/mass spectrometer system) under the following conditions. LC-MS/MS analysis conditions
as §1, §2, §3, §4, §5, §6

| Compound | Retention time in HPLC measurement ([1]; Table 5 (MMAE-type precursors)) [min] | Release rate (%) of drug from ADC (human liver lysosome) [%] | Release rate (%) of drug from ADC (human liver Cathepsin B) [%] | Retention time in HPLC measurement ([1]; Table 6 (eribulin precursors)) [min] |
| --- | --- | --- | --- | --- |
| CC[C@H](C)[C@@H]([C@@H](CC(=O)N1CCC[C@H]1[C@H](OC)[C@@H](C)C(=O)N[C@H](C)[C@@H](OP(=O)(O)O)c1ccccc1)OC)N(C)C(=O)[C@@H](NC(=O)[C@H](C(C)C)N(C)C(=O)OCc1ccc(NC(=O)[C@H](CCCNC(N)=O)NC(=O)[C@@H](NC(=O)[C@H](CC(=O)N[C@H]2CCOC2=O)NC(=O)CCOCCOCCOCCOCCNC(=O)CCN2C(=O)C=CC2=O)C(C)C)cc1)C(C)C [Example 2] ({Propanoyl(3-maleimido)-PEG4}-D(hSer(lactone))V[Cit][PABC][NMeV]V[Dil][Dolaproine]-X3) | 0.96 | – | – | – |
| CC[C@H](C)[C@@H]([C@@H](CC(=O)N1CCC[C@H]1[C@H](OC)[C@@H](C)C(=O)N[C@H](C)[C@@H](OP(=O)(O)OCc1ccc(NC(=O)[C@H](CCCNC(N)=O)NC(=O)[C@@H](NC(=O)[C@H](CC(=O)N[C@H]2CCOC2=O)NC(=O)CCOCCOCCOCCOCCNC(=O)[C@H](CNC(=O)CCP(=O)(O)O)N2C(=O)C=CC2=O)C(C)C)cc1)c1ccccc1)OC)N(C)C(=O)[C@@H](NC(=O)[C@H](C(C)C)N(C)C)C(C)C [Example 3] | 0.70 | – | – | – |
| CC[C@H](C)[C@@H]([C@@H](CC(=O)N1CCC[C@H]1[C@H](OC)[C@@H](C)C(=O)N[C@H](C)[C@@H](O)c1ccccc1)OC)N(C)C(=O)[C@@H](NC(=O)[C@H](C(C)C)N(C)C(=O)OCc1ccc(NC(=O)[C@H](CCCNC(N)=O)NC(=O)[C@@H](NC(=O)[C@H](CC(=O)N[C@H]2CCOC2=O)NC(=O)CCOCCOCCOCCOCCNC(=O)[C@H](CNC(=O)CCP(=O)(O)O)N2C(=O)C=CC2=O)C(C)C)cc1)C(C)C [Example 8] ({Propanoyl(3-PO3H2)}-[βAla(2S-maleimido)][PEG4]D(hSer(lactone))V[Cit][PABC][NMeV]V[Dil][Dolaproine]-X1) | 1.03 | 60 | 41 | – |
| CC[C@@]1(O)C(=O)OCc2c1cc1n(c2=O)Cc2c-1nc1cc(F)c(C)c3c1c2[C@@H](NC(=O)COP(=O)(O)OCc1ccc(NC(=O)[C@H](CCCNC(N)=O)NC(=O)[C@@H](NC(=O)[C@H](CC(=O)N[C@H]2CCOC2=O)NC(=O)CCOCCOCCOCCOCCNC(=O)[C@H](CNC(=O)CCP(=O)(O)O)N2C(=O)C=CC2=O)C(C)C)cc1)CC3 [Example 12] | – | 3.5 | 106 | – |
| C=C1C[C@@H]2CC[C@@]34C[C@H]5O[C@H]6[C@@H](O3)[C@H]3O[C@H](CC[C@@H]3O[C@H]6[C@H]5O4)CC(=O)C[C@@H]3[C@@H](OC)[C@@H](C[C@H](O)CNC(=O)OCc4ccc(NC(=O)[C@H](CCCNC(N)=O)NC(=O)[C@@H](NC(=O)[C@H](CC(=O)N[C@H]5CCOC5=O)NC(=O)CCOCCOCCOP(=O)(O)OCCNC(=O)[C@H](CNC(=O)CCP(=O)(O)O)N5C(=O)C=CC5=O)C(C)C)cc4)O[C@H]3C[C@H]3O[C@@H](CC[C@@H]1O2)C[C@@H](C)C3=C [Example 17] | – | 56 | 58 | 1.04 |
| C=C1C[C@@H]2CC[C@@]34C[C@H]5O[C@H]6[C@@H](O3)[C@H]3O[C@H](CC[C@@H]3O[C@H]6[C@H]5O4)CC(=O)C[C@@H]3[C@@H](OC)[C@@H](C[C@@H](CNC(=O)OCc4ccc(NC(=O)[C@H](CCCNC(N)=O)NC(=O)[C@@H](NC(=O)[C@H](CC(=O)N[C@H]5CCOC5=O)NC(=O)CCOCCOCCOCCOCCNC(=O)[C@H](CNC(=O)CCP(=O)(O)O)N5C(=O)C=CC5=O)C(C)C)cc4)OP(=O)(O)O)O[C@H]3C[C@H]3O[C@@H](CC[C@@H]1O2)C[C@@H](C)C3=C [Example 26] | – | – | – | 0.91 |
